In paper PMC8196545 (Cell reports, 2021):

Target: HIV-1 NL4-3 Env on infected cells (HIV-1 group M subtype B, NL4-3 (pNL4-3 …, strain))

B1: c11395 (antibody, V domains shown)
VH: DVQLLQSNPQVTKPGTTMKISCKTSGFTFSDHFIHWVRLTPARGLEWLGLLDPQGGESVTVFSETFKDRVTMTADTSKNIAYMELHTLTSEDTALYFCATTTLENDDGDYVAAFDFWGQGTPVIVSS
VL: QSVLTQTPSVSAAPGQKVTISCSGSTSNIGSNFVSWYQHSPGAAPRLIIYNNAERPSGIPARFSGSKSGSSATLAITGLQTEDEAEYFCAAWNNGLKSAHYVFGTGTRLSVL
  binding result: binds

B2: c5337 (antibody, V domains shown)
VH: QVRLQESAPRLVKPSETLSLTCTVSGGSIFPFFYSWIRQAPGGGLQWIGRLYSNTGSSKSNPSLHLRVALSVDRSRNQVGLKMTSMTAADTGVYYCVRDIMRDFDDFNGAGGVYGGVDIWGRGTAVTVSS
VL: QFVLTQPPSVSESPGKTISISCTRSSGTFARNSVHWYLQRPGSVPKTVIYDGNRRPSGIPGRFSASIDVSSGSASLTISGLTPEDEAEYYCQSYDGGNHVVFGGGTKVTVL
  binding result: binds

B3: c18622 (antibody, V domains shown)
VH: EVRLLESGGGLVQPGQSLRLSCAASGFTFRNYALAWVRQTPRKGLEWVSLLSSSGDGAFYADSLKGRFTISRDNSKNTLYLEGHSLRADDSAIYYCVKVRWLQYDWHFDLWGRGALVTVSS
VL: AIRMTQSPSTLSASVGDRVTIACRASQDIGSSLAWYQQRPGQAPRLLIYKASVLEGGVPSRFSGSGSGTEFRLIISSLQADDYATYYCQQYSGYSCTFGQGTKVDIT
  binding result: binds

B4: c5221 (antibody, V domains shown)
VH: QPQMKQSGIEVKKPGAAVKVSCKPSGYWFIACGISWVRQAPGRGLEWLGWVYPYNGKVNLARKFWGRVTLTADRSTETAYMELKSLTSDDTAIYYCARDSEQYDAAMPNYFTEYGMDVWGQGTTVIVSS
VL: EIVLTQSPDTLSLSPGETAALSCRASQSITGKGLAWYKQRPGQPPSLFVFGVSKRAAGVPDRVSGSGSGTDYILTIRRLEPEDSAVYFCQQYQDPARTFGQGTKLEIK
  binding result: binds

B5: c21122 (antibody, V domains shown)
VH: QVQLAQSAAEVKRPGASVKVSCKVSGNTLMEVSIQWVRQTPGKGLEWLGGFAPEKDDWVYAQKFLGRVTMTEDTSTDIAYMHMNSLTSDDTATYYCVGGWQAWGQGTLVTVSS
VL: DIQMTQSPSSLSASVGDRITITCRASQDIINYLAWYQQQAGRAPKSLIYAASSLQSGVPSKFSGSGSGTNFSLTISSLQPEDFATYYCQQYYSYPLTFGGGTKVDLR
  binding result: binds

B6: c5300 (antibody, V domains shown)
VH: QMQLQESGPGLVKPSETLTVTCYVSGGSISRYHWAWIRQSAGKPLEWIGSVYGNSGSVRSSPSLHTRVALVIGSTYFSLKLKSATAADTAVYYCARELARDFNYDFGHGGSSFGIDVWGRGIMVTVSS
VL: NFILTQPHSVSGSPGKTVIISCTRSSGNIGDNSVQWYQHRPGTSPTTVISEKNRRPSGIPGRFSASIDTSSNSASLTISDLRSEDEAVYYCQSCDGGNRLIFGGGTTLTVL
  binding result: binds

B7: c11475 (antibody, V domains shown)
VH: EARLVESGGGRVQPGGSLRLSCEASGFRFSSYTFNWVRQSPGKGLEWLAKISASPFGRSQVNYAHSVEGRFIISRDNDGNSLRLQMNDLRGGDSGVYYCARAPWQERNLDYNYAMDVWGQGTTVIVSS
VL: ELVLTQSPGTLSLSPGERATVSCRASQSLRRDSLAWYQQKPGHSPRLLIFAASNRVPGIPYRFSGTGSGTQFTLTIEKMEPEDFAVYYCQSYGSSPLYTFGQGTKLDIN
  binding result: binds

B8: c21079 (antibody, V domains shown)
VH: EVQLVQSGGGEARPGDSLRISCAVSGFQFNQYAMSWVRQRPGKGLEWVSSADWTGNSVHYAGSLGDRFSVSRALYGHSLELQMNSLRPEDTAVYYCARQDFYASESRAFSEIHGNFFDLWGQGTRVTVSP
VL: QSALTQPPSASGSPGQSVIISCTGASSDISGHEYVSWYQQHAAKVPKLIIYEVTKRPSGVPDRFIGSRSGNTASLTISGLQADDEADYYCASYRHNDRSYVFGTGTTVAVL
  binding result: binds

B9: c13501 (antibody, V domains shown)
VH: QVQLQQWGAGLLKPSETLSLTCAIYGGSFDDNSWTWIRQSPGGGLEWIGEIKYSGTSDYNLSLKSRITMSIDMSKKQFSLKLTSVTAADTGLYFCARARLSKFNSAWSWEHHYYMDVWATGTAVTVSS
VL: DIQMTQSPSSLSASVGDRVTVTCRASQNIGNYLNWYQQKPGKAPKLLIFATSTLHGGVPSRFSGSGSGTDFTLSITNVQSEDVAIYFCQQSYSVPYSFGRGTSLDMR
  binding result: binds

B10: c11673 (antibody, V domains shown)
VH: EVKLVESGGTQVQPGGSLRISCVGSGIRFSSYSFNWVRQAPGKGPEWLAYISASPFGRSKVTYAQSVEGRFTVSRDNDANSLYLQMTGLTRDDTAVYYCARAPYYEGNFHYNYAMDVWGLGTPVIVSS
VL: GVVLTQSPGTLSVSPGERATVSCRASQSLSRDSLVWYQQKPGQPPRLLIFGTSNRVPGIPDRFSGGGSGTQFTLTISRLEPEDFAVYYCQNYGLSPLYSFGQGTKLEIK
  binding result: binds

B11: c11452 (antibody, V domains shown)
VH: EVKLVESGGTQVQPGGSLRISCVGSGFRFSSYSFNWVRQAPGKGPEWLTYISASPFGRSKVTYAPSVEGRFIVSRDNDANSLYLQMTGLTRDDTAVYHCARAPYYEGNFQYNYAMDVWGLGTTVIVSS
VL: GVVLTQSPGTLSLSPGERATVSCRASQSLSRDSLVWYQQKPGQPPRLLIYGTSNRVPGIPDRFSGGGSGTQFTLTISRLEPEDFAVYYCQNYGLSPLYSFGQGTKLEIK
  binding result: binds

B12: c10919 (antibody, V domains shown)
VH: EVKLVESGGTQVQPGGSLRISCVGSGFRFSSYSFNWVRQAPGKGPEWLAYISASPFGRSKVTYAQSVEGRFTVSRDNDANSLYLQMTGLTRDDTAVYYCARAPYYEGNFHYNYAMDVWGLGTPVIVSS
VL: GVVLTQSPGTLSVSPGERATISCRASQSLSRDSLVWYQQKPGQPPRLLIYGTSNRVPGIPDRFSGGGSGTQFTLTISRLEPEDFAVYYCQNYGLSPLFSFGQGTKLEIK
  binding result: binds

B13: c10840 (antibody, V domains shown)
V domain 1: EVRLDQSGAEMRKPGTSVRLSCTVSGHTTSDFFIHWVKQAPQRGPQWMGLINVEDENVIYAEVFQGRISIVADTSKTTVFLDLSHLTFEDTALYFCTTHTLEKETGDYVAAFDSWGQGTFLSVSS
V domain 2: QSVLTQPPSVSAVPGQKVIISCSGRTSNIGTNFVSWYQQFPGAAPKLLIYDTFHRPSGISDRFSASKSDTSATLAITALQPGDEAEYYCGAWDSGLNPAVFVFGSGTRVFVL
  binding result: binds

B14: c27071 (antibody, V domains shown)
VH: QFRLEQSGAEVKRPGSSVKVSCKATGGTFHTFVLSWVRQAPGQALEWMGGIIPIFGTAKYAQRFQGRVTFTTDEATNTAYMDLRRLTSDDTAVYFCARSATSDTALVDYGDYEADTFYHNHMDVWGGGTSVTVSS
VL: QSVLTQPPSASATPGQRVTISCSGSSSNIGSNSVTWYHQLPGTAPKVLIYSNDRRPSGVPDRFSGSKSGTSASLAISGLQSDDEGDFYCAAWDDSLKSPVFGGGTKLTVL
  binding result: binds

B15: c1369 (antibody, V domains shown)
VH: QVRLHQWGEGLLRPSDTLSLTCSLSGNVFYRTFFNWIRQSPGKGLEWIAEVSFAGDWTYNPSLKSRVTTYVDGFKYHVSLQMRSMTAADAGVYYCASGGGSFDVDSWGQGIRVTVSS
VL: EIVLTQTPLSSSVTLGQSASISCRSSQSLQHSNGNTYLSWFQQRPGQPPRLLIRKISNRFSEVPDRFTGSGSGTDFTLTIDRVEPEDVGTYYCVQATQFPWTFGQGTTVDIT
  binding result: binds

B16: c31461 (antibody, V domains shown)
VH: QLQLQESGPGLVKPSETLSLTCSASGVSIGGGSSFLGWIRQPPGMGLEWIVTHYSAAKIYYNPSLQSRVITSLDTSKTQFSLKLTSMTATDTAIYYCARGNWQLQAFDSWGQGILVTVSS
VL: DIQMTQSPSTLSASVGDRVTITCRASQDIRSWLAWYQQKPGEAPKLLIYTASRLHSGVPSRFSGSGSGTEFTLTISSLQPDDFATYYCQQHNSYSGTFGQGTKVEIK
  binding result: binds

B17: c11450 (antibody, V domains shown)
V domain 1: EVQLAQSGAEMRKPGTTVRISCVISGHTTTDYYVHWVQQAPGKGPQWMGLINFEDANTVYSQSFRGRVSISADISEKTVFLDLTGLTSGDTALYFCTTHTLEKDSGDYVSAFDSWGQGTLLSVSP
V domain 2: QSMLTQPPSISAVPGQKVIISCSGRTSNIGTNFVSWYQQVPGAAPRLLMYDNSNRPSGISDRFSGAKSGSTATLAITALQTEDEADYYCGSWDSGLNPPIFVFGPGTRVFVI
  binding result: binds

B18: c27236 (antibody, V domains shown)
VH: QVQLVQSGAEVKTPGSSVKVACKTSGGPFSSYAISWIRQAPGEGLEWMGGVTPLFGTARYTQKFQGRLTITTDESTSTTYMSLSGLKSEDTAVYYCASLAYIGSGPKWGQGALVTVSS
VL: DIQMTQSPSAMSASVGERVTITCRASQGISSDLAWFQQKPGKVPERLIYAASNLQSGVPSRFSGSGSGTQFTLTISGLQAEDSATYYCLQHDSYPWTFGQGTKVEIK
  binding result: binds

B19: c5539 (antibody, V domains shown)
VH: QVRLEQWGPGLLKPSETLSLTCAVYGESFDDYSWTWIRQTPSLGLQWIGEIRPFGEIVHKSSLSGRLSFSRDASMRRVYLKLTSVTAADAGVYFCARGPVIYQNPHFYYRGYNVWGQGTTVTVSA
VL: DVAVTQSPRSLVVTPGETATIFCRSSQSLRHGNGMHYLDWYLQKPGQSPQLLIYLTSNRASGVPDRFSGSGSGTEFTLKISRVEADDVGIYYCMQAIQDPRVFGQGTRLELK
  binding result: binds

B20: c29260 (antibody, V domains shown)
VH: QVRLQESGPGLVRPSETLSLTCLVSGDSITSNYWSWIRQPPGKTLEWIGFMYNSGDANYNPSLQSRVSISADTANNQFALRLTSVTAADTAVYYCARHPSRGSNYDSVTGDTYYYYYGIDVWGPGKAVAVSS
VL: DIQMTQSTPSLSASLGDKITISCQASRDIDTSLNWYQQKPGKSPKLLVVAASTLETGVPSRFSASGSGTHFTLTINDLQRDDVATYFCQQYAALPLTFGGGTRVDLR
  binding result: binds

B21: c29288 (antibody, V domains shown)
VH: QVRLQESGPGLVRPSETLSLTCLVSGDSITSNYWSWIRQPPGKTLEWIGFMYNSGDANYNPSLQSRVSISADTAKNHFALRLTSVTAADTAVYYCARHPSRGSDYESATGDTYYYYYGMDVWGPGIAVAVSS
VL: DIQMTQSTPSLSASLGDKITISCQASRDIDTSLNWYQQKPGKSPKLLIVAASTLETGVPSRFSASGSGTHFTLTINDLHRDDVATYFCQQYMGLPLTFGGGTRVDLR
  binding result: binds
